Measurements: the supplement of paper PMC10567573

B1: POMT2 (parent)
chain: VLRSRIRFIHLVTGCVLGSSGKVL

Variants of: B1
Assay: protein stability index of a GFP-peptide fusion (GPS, HEK-293T) (PSI 1-6); higher = more stable
Settings: c terminus: a fixed tail appended
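Also: lentivirally expressed fusions sorted by FACS into six bins by GFP to DsRed ratio, PSI derived from sequencing read proportions per bin multiplied by bin number.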

Variant | protein stability index
VLRSTIRFIHLVTGCVLGSSGKVL [R5T] | 1.99
VLRSPIRFIHLVTGCVLGSSGKVL [R5P] | 3.07
VLRSHIRFIHLVTGCVLGSSGKVL [R5H] | 2.82
VLRSYIRFIHLVTGCVLGSSGKVL [R5Y] | 2.99
VLRSGIRFIHLVTGCVLGSSGKVL [R5G] | 2.25
VLRSNIRFIHLVTGCVLGSSGKVL [R5N] | 2.48
VLRSLIRFIHLVTGCVLGSSGKVL [R5L] | 3.1
VLRSVIRFIHLVTGCVLGSSGKVL [R5V] | 2.4
VLRSMIRFIHLVTGCVLGSSGKVL [R5M] | 2.92
VLRSFIRFIHLVTGCVLGSSGKVL [R5F] | 2.21
VLRSSIRFIHLVTGCVLGSSGKVL [R5S] | 1.06
VLRSWIRFIHLVTGCVLGSSGKVL [R5W] | 2.14
VLRSDIRFIHLVTGCVLGSSGKVL [R5D] | 2.67
VLRSIIRFIHLVTGCVLGSSGKVL [R5I] | 2.1
VLRSEIRFIHLVTGCVLGSSGKVL [R5E] | 2.83
VLRSRVRFIHLVTGCVLGSSGKVL [I6V] | 3.12
VLRSRYRFIHLVTGCVLGSSGKVL [I6Y] | 3.93
VLRSRGRFIHLVTGCVLGSSGKVL [I6G] | 2.81
VLRSRARFIHLVTGCVLGSSGKVL [I6A] | 1.64
VLRSRPRFIHLVTGCVLGSSGKVL [I6P] | 3.19
VLRSRHRFIHLVTGCVLGSSGKVL [I6H] | 2.53
VLRSRSRFIHLVTGCVLGSSGKVL [I6S] | 1.83
VLRSRFRFIHLVTGCVLGSSGKVL [I6F] | 3.11
VLRSRRRFIHLVTGCVLGSSGKVL [I6R] | 1.78

Variant | protein stability index
VLRSRLRFIHLVTGCVLGSSGKVL [I6L] | 2.83
VLRSRKRFIHLVTGCVLGSSGKVL [I6K] | 2.08
VLRSRERFIHLVTGCVLGSSGKVL [I6E] | 2.45
VLRSRDRFIHLVTGCVLGSSGKVL [I6D] | 1.89
VLRSRMRFIHLVTGCVLGSSGKVL [I6M] | 2.88
VLRSRTRFIHLVTGCVLGSSGKVL [I6T] | 1.3
VLRSRCRFIHLVTGCVLGSSGKVL [I6C] | 4.38
VLRSRIRFIHPVTGCVLGSSGKVL [L11P] | 2.4
VLRSRIRFIHEVTGCVLGSSGKVL [L11E] | 2.96
VLRSRIRFIHGVTGCVLGSSGKVL [L11G] | 2.18
VLRSRIRFIHIVTGCVLGSSGKVL [L11I] | 2.01
VLRSRIRFIHTVTGCVLGSSGKVL [L11T] | 3.02
VLRSRIRFIHHVTGCVLGSSGKVL [L11H] | 2.02
VLRSRIRFIHMVTGCVLGSSGKVL [L11M] | 1.68
VLRSRIRFIHKVTGCVLGSSGKVL [L11K] | 2.13
VLRSRIRFIHCVTGCVLGSSGKVL [L11C] | 3.74
VLRSRIRFIHRVTGCVLGSSGKVL [L11R] | 1.73
VLRSRIRFIHNVTGCVLGSSGKVL [L11N] | 2.07
VLRSRIRFIHDVTGCVLGSSGKVL [L11D] | 2.48
VLRSRIRFIHQVTGCVLGSSGKVL [L11Q] | 2.87
VLRSRIRFIHSVTGCVLGSSGKVL [L11S] | 3.27
VLRSRIRFIHAVTGCVLGSSGKVL [L11A] | 2.33
VLRSRIRAIHLVTGCVLGSSGKVL [F8A] | 1.04
VLRSRIRVIHLVTGCVLGSSGKVL [F8V] | 2.68

Variant | protein stability index
VLRSRIRPIHLVTGCVLGSSGKVL [F8P] | 1.48
VLRSRIRWIHLVTGCVLGSSGKVL [F8W] | 2.35
VLRSRIRCIHLVTGCVLGSSGKVL [F8C] | 3.6
VLRSRIRTIHLVTGCVLGSSGKVL [F8T] | 2.35
VLRSRIRNIHLVTGCVLGSSGKVL [F8N] | 1.9
VLRSRIRDIHLVTGCVLGSSGKVL [F8D] | 1.88
VLRSRIRKIHLVTGCVLGSSGKVL [F8K] | 2.4
VLRSRIRSIHLVTGCVLGSSGKVL [F8S] | 1.57
VLRSRIRIIHLVTGCVLGSSGKVL [F8I] | 3.13
VLRSRIRGIHLVTGCVLGSSGKVL [F8G] | 1.66
VLRSRIREIHLVTGCVLGSSGKVL [F8E] | 1.76
VLRSRIRQIHLVTGCVLGSSGKVL [F8Q] | 1.67
VLRSRIRHIHLVTGCVLGSSGKVL [F8H] | 2.79
VLRSRIRRIHLVTGCVLGSSGKVL [F8R] | 2.11
VLRSRIRFIHLVTYCVLGSSGKVL [G14Y] | 3.68
VLRSRIRFIHLVTPCVLGSSGKVL [G14P] | 2.97
VLRSRIRFIHLVTVCVLGSSGKVL [G14V] | 4.81
VLRSRIRFIHLVTKCVLGSSGKVL [G14K] | 3.83
VLRSRIRFIHLVTDCVLGSSGKVL [G14D] | 1.88
VLRSRIRFIHLVTWCVLGSSGKVL [G14W] | 2.51
VLRSRIRFIHLVTICVLGSSGKVL [G14I] | 3.23
VLRSRIRFIHLVTACVLGSSGKVL [G14A] | 4.85
VLRSRIRFIHLVTFCVLGSSGKVL [G14F] | 3.15
VLRSRIRFIHLVTSCVLGSSGKVL [G14S] | 3.28

Variant | protein stability index
VLRSRIRFIHLVTNCVLGSSGKVL [G14N] | 2.11
VLRSRIRFIHLVTRCVLGSSGKVL [G14R] | 2.85
VLRSRIRFIHLVTECVLGSSGKVL [G14E] | 1.96
VLRSRIRFIHLVTLCVLGSSGKVL [G14L] | 2.46
VLRSRIRFIHLVTTCVLGSSGKVL [G14T] | 2.33
VLRSRIRFIHLVTMCVLGSSGKVL [G14M] | 1.85
VLRSRIRFIHLVTGSVLGSSGKVL [C15S] | 3.04
VLRSRIRFIHLVTGNVLGSSGKVL [C15N] | 1.4
VLRSRIRFIHLVTGYVLGSSGKVL [C15Y] | 3.56
VLRSRIRFIHLVTGGVLGSSGKVL [C15G] | 3.07
VLRSRIRFIHLVTGRVLGSSGKVL [C15R] | 2.13
VLRSRIRFIHLVTGAVLGSSGKVL [C15A] | 3.27
VLRSRIRFIHLVTGIVLGSSGKVL [C15I] | 1.67
VLRSRIRFIHLVTGMVLGSSGKVL [C15M] | 2.21
VLRSRIRFIHLVTGKVLGSSGKVL [C15K] | 3.31
VLRSRIRFIHLVTGVVLGSSGKVL [C15V] | 4.18
VLRSRIRFIHLVTGTVLGSSGKVL [C15T] | 1.4
VLRSRIRFIHLVTGEVLGSSGKVL [C15E] | 3.73
VLRSRIRFIHLVTGFVLGSSGKVL [C15F] | 1.72
VLRSRIRFIHLVTGPVLGSSGKVL [C15P] | 2.12
VLRSRIRFIHLVTGWVLGSSGKVL [C15W] | 2.95
VLRSRIRFIHLVTGCCLGSSGKVL [V16C] | 2.73
